Results: paper PMC10550955

Assays:
[1] = target: β-cas; test: SPR; homotypic: protein immobilised on CM5 or CM3 chip (~800-1000 RU), the same protein injected at increasing concentrations; BIAcore T200; 20 mM sodium phosphate buffer, pH 7.4; two-state model, one-state model for α-Syn and Chymo
[2] = target: γ-globulin; test: as above

Row | Substance | Kd [1] [nM] | Kd [2] [nM]
1 | β-cas (natural protein) | < 500 | 
2 | γ-globulin (natural protein) |  | < 500
